Measured values published in patent US7026443.
Read-outs that look alike come from different tables or passages of the source.

What was measured:
[1] = target: HLA-B*0702 (human); assay: competition with 125I-labeled standard peptide for purified HLA, gel filtration
[2] = target: HLA-B*5401 (human); assay: as above
[3] = target: HLA-B*5101 (human); assay: as above
[4] = target: HLA-B*3501 (human); assay: as above
[5] = target: HLA-B*5301 (human); assay: as above
[6] = target: HLA-B*0702 (human)
[7] = target: HLA-B*3501 (human)
[8] = target: HLA-B*5301 (human)
[9] = target: HLA-B*0702 (human); assay: competition with 125I-labeled standard probe peptide for purified HLA, gel filtration; settings: scale: ratio
[10] = target: HLA-B*5401 (human); assay: as above; settings: scale: ratio
[11] = target: HLA-B*5101 (human); assay: as above; settings: scale: ratio
[12] = target: HLA-B*3501 (human); assay: as above; settings: scale: ratio
[13] = target: HLA-B*5301 (human); assay: as above; settings: scale: ratio
[14] = target: HLA-A*2402 (human); assay: competition with 125I-labelled standard peptide for purified HLA, gel filtration
[15] = target: HLA-A*1101 (purified HLA class I molecule) (human); assay: competition with 125I-labelled standard peptide for purified HLA-A*1101, gel filtration
[16] = target: HLA-A*0201 (purified HLA class I molecule) (human)
[17] = target: HLA-A*3301 (human); assay: competition with 125I-labelled standard peptide for purified HLA, gel filtration; settings: remark: other sources report otherwise
[18] = target: HLA-A*0301 (human); assay: as above; settings: remark: other sources report otherwise
[19] = target: HLA-A*6801 (human); assay: as above; settings: remark: other sources report otherwise
[20] = target: HLA-A*1101 (human); assay: as above; settings: remark: other sources report otherwise
[21] = target: HLA-A*0101 (human); assay: competition with 125I-labelled standard peptide 944.02 ([..]) for purified HLA-A*0101, gel filtration; settings: remark: other sources report otherwise
[22] = target: HLA-A*0301 (human); assay: competitive inhibition of 125I-labelled standard peptide binding to purified HLA-A*0301, gel filtration; settings: remark: other sources report otherwise
[23] = target: HLA-A*2402 (human); assay: competition with 125I-labelled standard probe peptide for purified HLA-A*2402, gel filtration; settings: remark: other sources report otherwise
[24] = target: HLA-A*0301 (human); assay: competition with 125I-labeled standard peptide for purified HLA-A*0301, gel filtration
[25] = remark: other sources report otherwise

B1: HPV16 E1 308 … (peptide)
peptide: EPPKLRSTAA
modifications: not checked
binding affinity ratio (IC50 of standard peptide / IC50 of test peptide) [1]: 0.0002
binding affinity ratio (IC50 of standard peptide / IC50 of test peptide) [2]: 0.02
binding affinity ratio (IC50 of standard peptide / IC50 of test peptide) [3]: 0.0002
binding affinity ratio (IC50 of standard peptide / IC50 of test peptide) [4]: 0.0003
binding affinity ratio (IC50 of standard peptide / IC50 of test peptide) [5]: 0.0002

B2: HPV45 E1 433 peptide … (peptide)
peptide: RPIVQFLRY
modifications: not checked
binding affinity ratio (IC50 of standard peptide / IC50 of test peptide) (ratio relative to standard peptide) [6]: 0.0033
binding affinity ratio (IC50 of standard peptide / IC50 of test peptide) (ratio relative to standard peptide) [7]: 0.04
binding affinity ratio (IC50 of standard peptide / IC50 of test peptide) (ratio relative to standard peptide) [8]: 0.023

B3: HPV16 E1 576 … (peptide)
peptide: WPYLHNRLVV
modifications: not checked
binding affinity ratio (IC50 of standard peptide / IC50 of test peptide) [1]: 0.095
binding affinity ratio (IC50 of standard peptide / IC50 of test peptide) [2]: 0.076
binding affinity ratio (IC50 of standard peptide / IC50 of test peptide) [3]: 0.074
binding affinity ratio (IC50 of standard peptide / IC50 of test peptide) [4]: 0.0012
binding affinity ratio (IC50 of standard peptide / IC50 of test peptide) [5]: 0.0002

B4: HPV16 E7 46 … (peptide)
peptide: EPDRAHYNI
modifications: not checked
relative binding ratio [9]: 0.0001
relative binding ratio [10]: 0.0002
relative binding ratio [11]: 0.0031
relative binding ratio [12]: 0.0001
relative binding ratio [13]: 0.0017

B5: HPV18 E6 position 11, 11-mer … (peptide)
peptide: PYKLPDLCTEL
modifications: not checked
binding affinity ratio (IC50 of standard peptide / IC50 of test peptide) [14]: 0.0064

B6: HPV18 E6 111-119 peptide … (peptide)
peptide: PLNPAEKLR
modifications: not checked
relative binding ratio (IC50 of standard peptide / IC50 of test peptide) [15]: 0.0005

B7: HPV18 E1 447 peptide … (peptide)
peptide: RPIVQFLRY
modifications: not checked
binding affinity ratio (IC50 of standard peptide / IC50 of test peptide) [6]: 0.0033
binding affinity ratio (IC50 of standard peptide / IC50 of test peptide) [7]: 0.04
binding affinity ratio (IC50 of standard peptide / IC50 of test peptide) [8]: 0.023

B8: HPV16 E1 peptide … (position 90, 9 amino acids) (peptide)
peptide: YLVSPLSDI
modifications: not checked
relative binding ratio (IC50 of standard peptide / IC50 of test peptide) (ratio to standard peptide) [16]: 0.02

B9: HPV18 E6 3-12 peptide … (peptide)
peptide: RFEDPTRRPY
modifications: not checked
relative binding ratio (IC50 of standard peptide / IC50 of test peptide) [15]: 0.0002

B10: HPV16 E7 peptide … (peptide)
peptide: IVCPICSQK
modifications: not checked
binding affinity ratio (IC50 of standard peptide / IC50 of test peptide) [17]: 0.0016
binding affinity ratio (IC50 of standard peptide / IC50 of test peptide) [18]: 0.0077
binding affinity ratio (IC50 of standard peptide / IC50 of test peptide) [19]: 0.01
binding affinity ratio (IC50 of standard peptide / IC50 of test peptide) [20]: 0.0065

B11: HPV16 E1 peptide … (position 443, 9 amino acids) (peptide)
peptide: VMFLRYQGV
modifications: not checked
relative binding ratio (IC50 of standard peptide / IC50 of test peptide) (ratio to standard peptide) [16]: 0.014

B12: HPV45 E1 peptide … (position 532, 9 amino acids) (peptide)
peptide: ALDGNPISI
modifications: not checked
relative binding ratio (IC50 of standard peptide / IC50 of test peptide) [16]: 0.021

B13: HPV16 E7 18 ETTDLYCY (peptide)
peptide: ETTDLYCY
modifications: not checked
binding affinity ratio (IC50 of standard peptide / IC50 of test peptide) [21]: 0.078
relative binding ratio (IC50 of standard peptide / IC50 of test peptide) (ratio to standard peptide) [22]: 0.0002
relative binding ratio (IC50 of standard peptide / IC50 of test peptide) [23]: 0.0001

B14: HPV16 E6 59 … (peptide)
peptide: IVYRDGNPY
modifications: not checked
binding affinity ratio (IC50 of standard peptide / IC50 of test peptide) [21]: 0.0018
relative binding ratio (IC50 of standard peptide / IC50 of test peptide) [23]: 0.0001

B15: HPV18 E7 63-73 peptide … (peptide)
peptide: CMCCKCEARIK
modifications: not checked
relative binding ratio (IC50 of standard peptide / IC50 of test peptide) [24]: 0.0014
relative binding ratio (IC50 of standard peptide / IC50 of test peptide) [15]: 0.0002

B16: HPV16 E7 5 … (peptide)
peptide: TPTLHEYML
modifications: not checked
relative binding ratio [9, 25]: 0.11
relative binding ratio [10, 25]: 0.0002
relative binding ratio [11, 25]: 0.0001
relative binding ratio [12, 25]: 0.0001
relative binding ratio [13, 25]: 0.0001
